{"source": "patent US20160304570A1", "experiment_in_all_cases": "cell-based or functional assay", "key": {"[1]": {"target": "human voltage-gated sodium channel Nav1.7 (human) (UniProt Q15858)", "sequence (Q15858 whole entry)": "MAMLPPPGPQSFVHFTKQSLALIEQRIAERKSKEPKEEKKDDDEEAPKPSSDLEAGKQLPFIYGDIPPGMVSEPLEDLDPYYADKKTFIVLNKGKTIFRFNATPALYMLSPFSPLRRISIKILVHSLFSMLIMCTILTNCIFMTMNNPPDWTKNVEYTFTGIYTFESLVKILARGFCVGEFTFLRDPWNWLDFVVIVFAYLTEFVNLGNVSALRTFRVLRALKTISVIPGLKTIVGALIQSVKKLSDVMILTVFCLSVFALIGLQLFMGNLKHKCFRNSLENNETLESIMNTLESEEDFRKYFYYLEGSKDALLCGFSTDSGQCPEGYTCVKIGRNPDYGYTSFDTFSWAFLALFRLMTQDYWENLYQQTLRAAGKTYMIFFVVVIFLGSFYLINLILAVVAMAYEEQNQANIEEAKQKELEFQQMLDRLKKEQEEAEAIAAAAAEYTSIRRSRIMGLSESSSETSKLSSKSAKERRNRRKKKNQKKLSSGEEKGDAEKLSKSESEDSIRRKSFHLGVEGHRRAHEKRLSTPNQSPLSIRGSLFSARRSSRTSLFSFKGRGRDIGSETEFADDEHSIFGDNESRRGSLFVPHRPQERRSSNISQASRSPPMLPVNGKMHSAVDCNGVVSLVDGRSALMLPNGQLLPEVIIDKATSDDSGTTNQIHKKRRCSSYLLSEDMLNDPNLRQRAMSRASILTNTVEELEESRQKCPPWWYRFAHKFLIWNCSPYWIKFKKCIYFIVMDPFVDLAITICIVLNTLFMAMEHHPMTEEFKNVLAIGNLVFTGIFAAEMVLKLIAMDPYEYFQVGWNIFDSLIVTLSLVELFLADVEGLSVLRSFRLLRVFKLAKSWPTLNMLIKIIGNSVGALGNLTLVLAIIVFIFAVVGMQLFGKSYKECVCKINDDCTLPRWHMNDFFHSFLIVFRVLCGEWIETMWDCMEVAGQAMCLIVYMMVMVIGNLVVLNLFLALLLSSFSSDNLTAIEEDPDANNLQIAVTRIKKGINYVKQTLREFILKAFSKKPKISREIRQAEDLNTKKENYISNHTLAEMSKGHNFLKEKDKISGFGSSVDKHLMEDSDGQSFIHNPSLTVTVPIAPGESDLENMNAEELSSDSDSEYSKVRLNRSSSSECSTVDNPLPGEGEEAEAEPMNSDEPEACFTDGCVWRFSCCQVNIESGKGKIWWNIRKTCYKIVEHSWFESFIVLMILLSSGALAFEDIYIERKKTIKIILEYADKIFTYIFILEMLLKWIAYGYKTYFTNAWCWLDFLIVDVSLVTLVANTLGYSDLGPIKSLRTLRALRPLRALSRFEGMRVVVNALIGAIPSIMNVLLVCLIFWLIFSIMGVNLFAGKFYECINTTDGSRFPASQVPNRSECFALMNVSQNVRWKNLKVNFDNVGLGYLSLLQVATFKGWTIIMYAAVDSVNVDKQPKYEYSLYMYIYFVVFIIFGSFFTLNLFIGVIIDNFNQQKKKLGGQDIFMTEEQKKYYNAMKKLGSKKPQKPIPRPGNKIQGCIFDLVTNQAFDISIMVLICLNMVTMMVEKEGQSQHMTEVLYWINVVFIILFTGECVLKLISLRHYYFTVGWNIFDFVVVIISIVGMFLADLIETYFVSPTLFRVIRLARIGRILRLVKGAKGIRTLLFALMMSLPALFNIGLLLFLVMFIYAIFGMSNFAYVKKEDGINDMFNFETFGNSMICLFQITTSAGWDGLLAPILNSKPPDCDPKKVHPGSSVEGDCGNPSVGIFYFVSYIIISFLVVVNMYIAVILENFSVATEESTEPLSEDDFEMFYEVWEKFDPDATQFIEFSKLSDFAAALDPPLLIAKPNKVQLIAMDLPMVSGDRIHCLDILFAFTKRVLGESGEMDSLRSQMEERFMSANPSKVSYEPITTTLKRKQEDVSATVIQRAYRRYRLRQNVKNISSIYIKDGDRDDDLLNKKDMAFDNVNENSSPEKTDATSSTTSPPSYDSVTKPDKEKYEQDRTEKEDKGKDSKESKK"}, "[2]": {"target": "human voltage-gated sodium channel Nav1.5 (human) (UniProt Q14524)"}, "[3]": {"target": "human Nav1.7 voltage-gated sodium channel (human) (UniProt Q15858)", "sequence (Q15858 whole entry)": "as above"}, "[4]": {"target": "human Nav1.5 voltage-gated sodium channel (human) (UniProt Q14524)"}, "[5]": {"target": "human Nav1.3 voltage-gated sodium channel (human) (UniProt Q9NY46)"}, "[6]": {"target": "human voltage-gated sodium channel Nav1.3 (human) (UniProt Q9NY46)"}, "[7]": {"target": "human voltage-gated sodium channel Nav1.7 (human) (UniProt Q15858)", "remark": "listed apart in the source"}, "[8]": {"target": "human voltage-gated sodium channel Nav1.5 (human) (UniProt Q14524)", "remark": "listed apart in the source"}, "[9]": {"target": "human voltage-gated sodium channel Nav1.4 (human) (UniProt P35499)", "sequence (P35499 whole entry)": "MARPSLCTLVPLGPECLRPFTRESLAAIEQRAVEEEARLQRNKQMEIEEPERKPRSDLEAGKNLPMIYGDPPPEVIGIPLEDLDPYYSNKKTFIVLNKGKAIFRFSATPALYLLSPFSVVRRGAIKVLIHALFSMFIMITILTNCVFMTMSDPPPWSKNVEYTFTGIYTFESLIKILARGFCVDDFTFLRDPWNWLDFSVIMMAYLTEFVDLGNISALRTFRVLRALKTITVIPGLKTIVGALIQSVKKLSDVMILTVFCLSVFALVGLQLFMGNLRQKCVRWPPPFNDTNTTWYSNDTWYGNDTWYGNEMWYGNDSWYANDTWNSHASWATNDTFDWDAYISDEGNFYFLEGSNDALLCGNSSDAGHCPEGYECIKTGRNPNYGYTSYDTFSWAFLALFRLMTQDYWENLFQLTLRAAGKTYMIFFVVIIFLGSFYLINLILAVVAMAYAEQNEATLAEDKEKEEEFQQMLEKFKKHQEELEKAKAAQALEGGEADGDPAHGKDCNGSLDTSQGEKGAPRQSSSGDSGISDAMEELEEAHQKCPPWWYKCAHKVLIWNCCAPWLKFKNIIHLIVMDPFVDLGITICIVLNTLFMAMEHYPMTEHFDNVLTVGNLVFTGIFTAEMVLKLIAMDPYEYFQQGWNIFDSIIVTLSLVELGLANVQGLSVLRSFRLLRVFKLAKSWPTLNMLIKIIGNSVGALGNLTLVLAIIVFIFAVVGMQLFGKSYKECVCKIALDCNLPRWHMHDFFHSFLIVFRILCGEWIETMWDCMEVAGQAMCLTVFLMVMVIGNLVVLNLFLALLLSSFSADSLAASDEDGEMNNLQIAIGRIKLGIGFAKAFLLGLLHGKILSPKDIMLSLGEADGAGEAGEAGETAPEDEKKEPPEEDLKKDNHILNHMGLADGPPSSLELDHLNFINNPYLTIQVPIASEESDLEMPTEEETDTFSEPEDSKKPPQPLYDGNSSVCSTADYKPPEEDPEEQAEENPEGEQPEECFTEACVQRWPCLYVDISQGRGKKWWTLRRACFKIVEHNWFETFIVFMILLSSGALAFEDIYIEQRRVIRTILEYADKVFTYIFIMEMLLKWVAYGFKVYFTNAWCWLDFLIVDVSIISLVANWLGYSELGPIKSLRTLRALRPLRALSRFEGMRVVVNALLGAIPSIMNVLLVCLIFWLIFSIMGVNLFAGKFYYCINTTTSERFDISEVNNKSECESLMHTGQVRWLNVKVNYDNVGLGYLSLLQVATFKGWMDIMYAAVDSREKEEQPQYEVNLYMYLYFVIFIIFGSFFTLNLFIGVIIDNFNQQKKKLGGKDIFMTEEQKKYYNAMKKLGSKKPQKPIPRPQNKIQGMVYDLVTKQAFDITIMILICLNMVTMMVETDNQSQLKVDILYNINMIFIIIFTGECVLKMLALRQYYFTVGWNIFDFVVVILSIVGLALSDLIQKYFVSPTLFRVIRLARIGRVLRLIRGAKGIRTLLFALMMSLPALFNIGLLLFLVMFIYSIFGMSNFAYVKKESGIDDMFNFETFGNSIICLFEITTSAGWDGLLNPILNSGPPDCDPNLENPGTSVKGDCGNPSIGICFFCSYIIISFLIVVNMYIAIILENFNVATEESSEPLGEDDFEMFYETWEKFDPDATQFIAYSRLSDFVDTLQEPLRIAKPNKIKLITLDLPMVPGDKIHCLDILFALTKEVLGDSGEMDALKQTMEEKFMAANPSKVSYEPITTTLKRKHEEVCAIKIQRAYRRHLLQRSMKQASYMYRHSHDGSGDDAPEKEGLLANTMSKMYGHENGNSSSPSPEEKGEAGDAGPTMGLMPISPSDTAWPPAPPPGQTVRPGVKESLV"}}, "data": [{"substance": "4-Pen-[2-Abu5,13;Leu6;Arg28]GpTx-1(1-34) (peptide)", "values": [{"measurement": "Nav1.7 Use IC50 (µM), electrophysiology by PatchXpress", "setting": "[1]", "result": 0.003, "unit": "µM"}, {"measurement": "Nav1.5 Use IC50 (µM), electrophysiology by PatchXpress", "setting": "[2]", "result": "> 10", "unit": "µM"}, {"measurement": "IWQ Use Nav1.7 IC50 (IonWorks Quattro electrophysiology)", "setting": "[3]", "result": 0.54, "unit": "µM"}, {"measurement": "IWQ Use Nav1.5 IC50 (IonWorks Quattro electrophysiology)", "setting": "[4]", "result": 36.8, "unit": "µM"}, {"measurement": "IWQ Use Nav1.3 IC50 (IonWorks Quattro electrophysiology)", "setting": "[5]", "result": 0.9, "unit": "µM"}]}, {"substance": "4-Pen-[Ala5;Phe6;2-Abu13;Arg28]GpTx-1(1-34) (peptide)", "values": [{"measurement": "Nav1.7 Use IC50 (µM), electrophysiology by PatchXpress", "setting": "[1]", "result": 0.004, "unit": "µM"}, {"measurement": "Nav1.5 Use IC50 (µM), electrophysiology by PatchXpress", "setting": "[2]", "result": "> 10", "unit": "µM"}, {"measurement": "IWQ Use Nav1.3 IC50 (IonWorks Quattro electrophysiology)", "setting": "[6]", "result": 0.26, "unit": "µM"}, {"measurement": "IWQ Use Nav1.7 IC50 (IonWorks Quattro electrophysiology)", "setting": "[7]", "result": 0.18, "unit": "µM"}, {"measurement": "IWQ Use Nav1.5 IC50 (IonWorks Quattro electrophysiology)", "setting": "[8]", "result": 44.4, "unit": "µM"}]}, {"substance": "4-Pen-[Nva5;Leu6;2-Abu13;Arg28]GpTx-1(1-34) (peptide)", "values": [{"measurement": "IWQ Use Nav1.3 IC50 (IonWorks Quattro electrophysiology)", "setting": "[6]", "result": 0.23, "unit": "µM"}, {"measurement": "IWQ Use Nav1.7 IC50 (IonWorks Quattro electrophysiology)", "setting": "[7]", "result": 0.1, "unit": "µM"}, {"measurement": "IWQ Use Nav1.5 IC50 (IonWorks Quattro electrophysiology)", "setting": "[8]", "result": 46.2, "unit": "µM"}]}, {"substance": "((2-Hydroxyethyl)thio)acetamide-NPEG11-triazole-[2-Abu5,13;Leu6;Arg28]GpTx-1(1-34) (peptide)", "values": [{"measurement": "Nav1.4 Use IC50 (PatchXpress electrophysiology, inhibition of sodium current)", "setting": "[9]", "result": "> 10", "unit": "µM"}, {"measurement": "Nav1.7 Use IC50 (PatchXpress electrophysiology, inhibition of sodium current)", "setting": "[1]", "result": 0.087, "unit": "µM"}, {"measurement": "Nav1.5 Use IC50 (PatchXpress electrophysiology, inhibition of sodium current)", "setting": "[2]", "result": "> 10", "unit": "µM"}]}, {"substance": "Biotin-Ahx-[2-Abu5,13;Leu6;Arg28]GpTx-1(1-34) (peptide)", "values": [{"measurement": "Nav1.4 Use IC50 (µM), PatchXpress electrophysiology", "setting": "[9]", "result": 27.3, "unit": "µM"}, {"measurement": "Nav1.7 Use IC50 (µM), PatchXpress electrophysiology", "setting": "[1]", "result": 0.011, "unit": "µM"}, {"measurement": "Nav1.5 Use IC50 (µM), PatchXpress electrophysiology", "setting": "[2]", "result": "> 10", "unit": "µM"}]}, {"substance": "[2-Abu5,Leu6,K(ethyl-triazole-PEG11-((2-hydroxyethyl)thio)acetamide)13,Arg28]GpTx-1(1-34) (peptide)", "values": [{"measurement": "Nav1.4 Use IC50 (PatchXpress electrophysiology, inhibition of sodium current)", "setting": "[9]", "result": 9.88, "unit": "µM"}, {"measurement": "Nav1.7 Use IC50 (PatchXpress electrophysiology, inhibition of sodium current)", "setting": "[1]", "result": 0.018, "unit": "µM"}, {"measurement": "Nav1.5 Use IC50 (PatchXpress electrophysiology, inhibition of sodium current)", "setting": "[2]", "result": "> 10", "unit": "µM"}]}, {"substance": "[2-Abu5;Leu6;K(4-Pen)13;Arg28]GpTx-1(1-34) (peptide)", "values": [{"measurement": "Nav1.7 Use IC50 (µM), electrophysiology by PatchXpress", "setting": "[1]", "result": 0.002, "unit": "µM"}, {"measurement": "Nav1.5 Use IC50 (µM), electrophysiology by PatchXpress", "setting": "[2]", "result": "> 10", "unit": "µM"}, {"measurement": "IWQ Use Nav1.7 IC50 (IonWorks Quattro electrophysiology)", "setting": "[3]", "result": 0.55, "unit": "µM"}, {"measurement": "IWQ Use Nav1.5 IC50 (IonWorks Quattro electrophysiology)", "setting": "[4]", "result": 39.7, "unit": "µM"}, {"measurement": "IWQ Use Nav1.3 IC50 (IonWorks Quattro electrophysiology)", "setting": "[5]", "result": 0.81, "unit": "µM"}]}, {"substance": "[Ala5;Leu6,26;Pra12;Arg28]GpTx-1(1-34) (peptide)", "values": [{"measurement": "IWQ Use Nav1.7 IC50 (IonWorks Quattro electrophysiology)", "setting": "[3]", "result": 0.26, "unit": "µM"}, {"measurement": "IWQ Use Nav1.5 IC50 (IonWorks Quattro electrophysiology)", "setting": "[4]", "result": "> 50", "unit": "µM"}, {"measurement": "IWQ Use Nav1.3 IC50 (IonWorks Quattro electrophysiology)", "setting": "[5]", "result": 0.54, "unit": "µM"}]}, {"substance": "[Ala5;Leu6,26;Pra13;Arg28]GpTx-1(1-34) (peptide)", "values": [{"measurement": "Nav1.7 Use IC50 (µM), electrophysiology by PatchXpress", "setting": "[1]", "result": 0.009, "unit": "µM"}, {"measurement": "Nav1.5 Use IC50 (µM), electrophysiology by PatchXpress", "setting": "[2]", "result": "> 10", "unit": "µM"}, {"measurement": "IWQ Use Nav1.7 IC50 (IonWorks Quattro electrophysiology)", "setting": "[3]", "result": 0.22, "unit": "µM"}, {"measurement": "IWQ Use Nav1.5 IC50 (IonWorks Quattro electrophysiology)", "setting": "[4]", "result": 36.4, "unit": "µM"}, {"measurement": "IWQ Use Nav1.3 IC50 (IonWorks Quattro electrophysiology)", "setting": "[5]", "result": 0.48, "unit": "µM"}]}, {"substance": "[Ala5;Phe6,13;Arg28]GpTx-1(1-34)-FreeAcid (peptide)", "values": [{"measurement": "IWQ Use Nav1.3 IC50", "setting": "[6]", "result": 1200, "unit": "nM"}]}, {"substance": "[Ala5;Phe6;Arg13,28]GpTx-1(1-34)-FreeAcid (peptide)", "values": [{"measurement": "IWQ Use Nav1.3 IC50", "setting": "[6]", "result": 600, "unit": "nM"}, {"measurement": "IWQ Use Nav1.7 IC50", "setting": "[7]", "result": 4500, "unit": "nM"}]}, {"substance": "[Ala5;Phe6;Asp13;Arg28]GpTx-1(1-34)-FreeAcid (peptide)", "values": [{"measurement": "IWQ Use Nav1.3 IC50", "setting": "[6]", "result": 2300, "unit": "nM"}]}, {"substance": "[Ala5;Phe6;Gln13;Arg28]GpTx-1(1-34)-FreeAcid (peptide)", "values": [{"measurement": "IWQ Use Nav1.3 IC50", "setting": "[6]", "result": 1700, "unit": "nM"}]}, {"substance": "[Ala5;Phe6;Glu10;Atz(PEG3-((2-hydroxyethyl)thio)acetamide)13;Leu26;Arg28]GpTx-1(1-34) (peptide)", "values": [{"measurement": "Nav1.4 Use IC50 (PatchXpress electrophysiology, inhibition of sodium current)", "setting": "[9]", "result": 5.95, "unit": "µM"}, {"measurement": "Nav1.7 Use IC50 (PatchXpress electrophysiology, inhibition of sodium current)", "setting": "[1]", "result": 0.013, "unit": "µM"}, {"measurement": "Nav1.5 Use IC50 (PatchXpress electrophysiology, inhibition of sodium current)", "setting": "[2]", "result": "> 10", "unit": "µM"}]}, {"substance": "[Ala5;Phe6;Glu10;Atz(PEG11-((2-hydroxyethyl)thio)acetamide)13;Leu26;Arg28]GpTx-1(1-34) (peptide)", "values": [{"measurement": "Nav1.4 Use IC50 (PatchXpress electrophysiology, inhibition of sodium current)", "setting": "[9]", "result": "> 10", "unit": "µM"}, {"measurement": "Nav1.7 Use IC50 (PatchXpress electrophysiology, inhibition of sodium current)", "setting": "[1]", "result": 0.021, "unit": "µM"}, {"measurement": "Nav1.5 Use IC50 (PatchXpress electrophysiology, inhibition of sodium current)", "setting": "[2]", "result": "> 10", "unit": "µM"}]}, {"substance": "[Ala5;Phe6;Glu10;K(Biotin)13;Leu26;Arg28]GpTx-1(1-34) (peptide)", "values": [{"measurement": "Nav1.4 Use IC50 (µM), PatchXpress electrophysiology", "setting": "[9]", "result": 7.13, "unit": "µM"}, {"measurement": "Nav1.7 Use IC50 (µM), PatchXpress electrophysiology", "setting": "[1]", "result": 0.015, "unit": "µM"}, {"measurement": "Nav1.5 Use IC50 (µM), PatchXpress electrophysiology", "setting": "[2]", "result": "> 10", "unit": "µM"}]}, {"substance": "[Ala5;Phe6;Glu10;Pra13;Leu26;Arg28]GpTx-1(1-34) (peptide)", "values": [{"measurement": "Nav1.7 Use IC50 (µM), electrophysiology by PatchXpress", "setting": "[1]", "result": 0.012, "unit": "µM"}, {"measurement": "Nav1.5 Use IC50 (µM), electrophysiology by PatchXpress", "setting": "[2]", "result": 15.3, "unit": "µM"}, {"measurement": "IWQ Use Nav1.7 IC50 (IonWorks Quattro electrophysiology)", "setting": "[3]", "result": 0.54, "unit": "µM"}, {"measurement": "IWQ Use Nav1.5 IC50 (IonWorks Quattro electrophysiology)", "setting": "[4]", "result": 32.2, "unit": "µM"}, {"measurement": "IWQ Use Nav1.3 IC50 (IonWorks Quattro electrophysiology)", "setting": "[5]", "result": 0.56, "unit": "µM"}]}, {"substance": "[Ala5;Phe6;Glu13;Arg28]GpTx-1(1-34)-FreeAcid (peptide)", "values": [{"measurement": "IWQ Use Nav1.3 IC50", "setting": "[6]", "result": 1900, "unit": "nM"}]}, {"substance": "[Ala5;Phe6;Gly13;Arg28]GpTx-1(1-34)-FreeAcid (peptide)", "values": [{"measurement": "IWQ Use Nav1.3 IC50", "setting": "[6]", "result": 1500, "unit": "nM"}]}]}
